Broadly, the IC50 is the concentration that gives 50% inhibition.

Experiment [1] concerns the target T1, TNFRFc (extra-cellular portion of the 80 kD form of the human TNF receptor fused to Fc of human IgG1) (Homo sapiens, UniProt P20333).
T1 construct: made in house
Nature of the experiment: Cell-free TNF binding assay, competition of ligands with TNF-alpha-biotin. The note with it: 200 ng/ml TNFRFc for coating, 20 ng/ml TNF-alpha-biotin, FIG. 8; for effect on binding of TNF-alpha-biotin to TNFRFc: concentrations used. As for the experimental part: (§1) The assay plate was washed five times with PBS containing 0.05% Tween 20 and then incubated with 275 μl of PBS containing 5% skim milk powder at room temperature for 60 min and then washed as above. Then a "checkerboard titration" was initially carried out in order to determine a suitable combination of receptor and ligand concentrations for the design of the assay. […] After washing as above, incubation with 100 μl of streptavidin-peroxidase (Amersham; 1:250 in DMEM/FCS) was carried out at room temperature for 30 min and then washed as above. The bound peroxidase was detected by the color produced in 100 μl of tetramethylbenzidine substrate solution (Behringwerke). After incubation at room temperature for 30 min, the extinction at 450 nm was measured.

The target of experiment [2] is T2, GM-CSFRFc (extracellular domain of the human GM-CSF receptor fused to Fc of human IgG1) (Homo sapiens, UniProt P15509).
T2 construct: made in house; host or cells: COS cells (transient; supernatants used)
Put plainly: Cell-free GM-CSF binding assay, competition of ligands with GM-CSF-biotin. Particulars: 1000 ng/ml GM-CSFRFc for coating, 150 ng/ml GM-CSF-biotin, concentrations used; FIG. 14. As for the experimental part: as §1, with “ELISA plates (Nunc, type B) were coated overnight at 4° C. with 100 μl of an affinity-purified rabbit serum against the CH2 domain of human IgG (Dakopatts). The concentration was 10 μg/ml in PBS (137 mM NaCl, 2.7 mM KCl, 6.1 mM Na2 HPO4, 3.9 mM KH2 PO4, 0.5 mM MgCl2, 0.1 mM CaCl2, pH 7.0). The assay” for “The assay”
Transient expression of pGM-CSFRFc in COS cells was carried out. To do this, COS cells were transfected with pGM-CSFRFc with the aid of DEAE-dextran (EP-A 0325 262).

Experiment [3] deals with T3, IL-4RFc (extracellular portion of the human receptor for IL-4 fused to Fc of human IgG1) (Homo sapiens, UniProt P24394).
T3 construct: It is composed of the extracellular portion of the human receptor for IL-4
Nature of the experiment: Cell-free IL-4 binding assay, competition of ligands with IL-4-biotin. Particulars: 300 ng/ml IL-4-biotin, various concentrations of competitor; FIG. 3. As for the experimental part:
as §1, with “ELISA plates (Nunc, type B) were coated overnight at 4° C. with 100 μl of an affinity-purified rabbit serum against the CH2 domain of human IgG (Dakopatts). The concentration was 10 μg/ml in PBS (137 mM NaCl, 2.7 mM KCl, 6.1 mM Na2 HPO4, 3.9 mM KH2 PO4, 0.5 mM MgCl2, 0.1 mM CaCl2, pH 7.0). The assay” for “The assay”

Another experiment concerns the target TNFRFc (human). Nature of the experiment: competition with TNF-alpha-biotin (20 ng/ml) for plate-bound TNFRFc (200 ng/ml for coating), ELISA format. In general terms: In an ELISA, binding on a coated surface is turned into a signal by an enzyme label.
The target of the next experiment is TNF-alpha-biotin. Put plainly: soluble TNFRFc competing with plate-bound TNFRFc for TNF-alpha-biotin, ELISA format.
Another experiment concerns the target T4, IL-4-biotin (Homo sapiens, UniProt P05112).
T4 sequence (P05112 25-153): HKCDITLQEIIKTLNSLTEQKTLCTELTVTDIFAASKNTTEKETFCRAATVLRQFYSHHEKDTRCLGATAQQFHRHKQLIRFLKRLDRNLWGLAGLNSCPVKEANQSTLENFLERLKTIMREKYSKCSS
Put plainly: Detection of soluble IL-4 receptor in the cell-free binding assay (competition for IL-4-biotin). The note with it: plate coated with 300 ng/ml IL-4RFc; FIG. 4. As for the experimental part:
as §1, with “ELISA plates (Nunc, type B) were coated overnight at 4° C. with 100 μl of an affinity-purified rabbit serum against the CH2 domain of human IgG (Dakopatts). The concentration was 10 μg/ml in PBS (137 mM NaCl, 2.7 mM KCl, 6.1 mM Na2 HPO4, 3.9 mM KH2 PO4, 0.5 mM MgCl2, 0.1 mM CaCl2, pH 7.0). The assay” for “The assay”

Take “GM-CSF: granulocyte/macrophage colony-stimulating factor, unlabelled ligand”: the “effect on binding of TNF-alpha-biotin to TNFRFc” value (from here on “effect on binding”) in experiment [1] was “no effect”. For the molecule “IL-1-alpha: interleukin ligand used for competition (specificity control)”, in experiment [1], the “effect on binding” value is reported as “no effect”. For the same molecule, in experiment [2], the “inhibition of binding of GM-CSF-biotin to GM-CSFRFc” value (from here on “inhibition … to GM-CSFRFc”) is listed as “do not inhibit”. For the same molecule, in experiment [3], the “competition with IL-4-biotin for binding to IL-4RFc” value is listed as “no binding activity”. In the experiment with TNFRFc (human), TNF-alpha (ligand) came in with a concentration for half-maximal inhibition (IC50) of 5 ng/mL. For “IL-4: interleukin 4, unlabelled ligand used for competition”, the “effect on binding” value in experiment [1] is reported as “no effect”. The “inhibition … to GM-CSFRFc” value in experiment [2] is reported as “do not inhibit”. Consider TNF-alpha, for which the “inhibition of binding of TNF-alpha-biotin, IC50” value in experiment [1] was determined as 5 ng/mL. Besides, the “inhibition … to GM-CSFRFc” value in experiment [2] is “do not inhibit”. For TNFRFc (Fc fusion), the IC50 in the experiment with TNF-alpha-biotin was 0.035 µg/mL.

B1: G-CSF: ligand used for competition (specificity control) (protein, UniProt P09919 31-207, looked up)
Granulocyte …: TPLGPASSLPQSFLLKCLEQVRKIQGDGAALQEKLVSECATYKLCHPEELVLLGHSLGIPWAPLSSCPSQALQLAGCLSQLHSGLFLYQGLLQALEGISPELGPTLDTLQLDVADFATTIWQQMEELGMAPALQPTQGAMPAFASAFQRRAGGVLVASHLQSFLEVSYRVLRHLAQP
With B1, in experiment [2], the “inhibition … to GM-CSFRFc” value was “do not inhibit”.

B2: IL-7RFc: an Fc fusion of the human IL-7 receptor (protein)
chain: ESGYAQNGDLEDAELDDYSFSCYSQLEVNGSQHSLTCAFEDPDVNITNLEFEICGALVEVKCLNFRKLQEIYFIETKKFLLIGKSNICVKVGEKSLTCKKIDLTTIVKPEAPFDLSVVYREGANDFVVTFNTSHLQKKYVKVLMHDVAYRQEKDENKWTHVNLSSTKLTLLQRKLQPAAMYEIKVRSIPDHYFKGFWSEWSPSYYFRTPEINNSSGEMD
Turning to B2, the “binding activity of soluble receptor/Fc fusion protein in IL-4-biotin competition assay” value in the experiment with IL-4-biotin was “no binding activity”.

(Values after patent publication US5639597A, “Cell-free receptor binding assays, the production and use thereof” (Behringwerke Aktiengesellschaft, priority 1990, dated 1997).)
